This note sets out measurements from paper PMC9082959, “Mechanism of Assembly of the Non-Covalent Spectrin Tetramerization Domain from Intrinsically Disordered Partners” (Journal of molecular biology, 2013).

What all share (experiment): ITC; β16β17 at 25–50 μM in the cell titrated with 15–20 injections to 2–2.5 eq of α0α1; one-site binding model; PBS (50 mM sodium phosphate, 150 mM NaCl, pH 7.04), 25 °C; mutants only against the wild-type partner
What all share (settings): both partners purified
A general note: Isothermal titration calorimetry measures the heat released or taken up as one component is titrated into another.

One experiment concerns the target T1, β16β17 K67G (human, UniProt P11277 1898-2083, K2070G).
T1 construct: erythrocyte β-spectrin, human, residues 1898-2083 (β16β17); mutant of m2; also called K2070G; source: E. coli C41(DE3), purified (Ni2+ agarose, thrombin cleavage, gel filtration)
T1 sequence (looked up): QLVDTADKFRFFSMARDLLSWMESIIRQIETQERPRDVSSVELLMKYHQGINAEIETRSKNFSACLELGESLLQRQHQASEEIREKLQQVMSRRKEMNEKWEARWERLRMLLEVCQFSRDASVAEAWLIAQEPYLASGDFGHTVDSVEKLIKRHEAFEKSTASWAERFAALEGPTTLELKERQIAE

For a further experiment, the target named is T2, β16β17 K46G (human, UniProt P11277 1898-2083, K2049G).
T2 construct: erythrocyte β-spectrin, human, residues 1898-2083 (β16β17); mutant of m2; also called K2049G; source: E. coli C41(DE3), purified (Ni2+ agarose, thrombin cleavage, gel filtration)
T2 sequence (looked up): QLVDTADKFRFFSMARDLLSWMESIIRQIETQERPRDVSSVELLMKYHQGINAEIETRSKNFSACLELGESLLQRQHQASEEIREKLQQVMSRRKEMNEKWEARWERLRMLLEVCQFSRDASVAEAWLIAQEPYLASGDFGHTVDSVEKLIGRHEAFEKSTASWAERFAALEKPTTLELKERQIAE

Another experiment concerns the target T3, β16β17 R13A (human, UniProt P11277 1898-2083, R2016A).
T3 construct: erythrocyte β-spectrin, human, residues 1898-2083 (β16β17); mutant of m2; also called R2016A; source: E. coli C41(DE3), purified (Ni2+ agarose, thrombin cleavage, gel filtration)
T3 sequence (looked up): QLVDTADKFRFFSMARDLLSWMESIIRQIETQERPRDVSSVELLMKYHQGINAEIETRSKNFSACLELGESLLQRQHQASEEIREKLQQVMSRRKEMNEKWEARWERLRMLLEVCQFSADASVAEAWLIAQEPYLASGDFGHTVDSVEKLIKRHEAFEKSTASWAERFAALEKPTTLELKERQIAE

In experiment [1] the target is T4, β16β17 (erythrocyte β-spectrin residues 1898–2083), wild type (human, UniProt P11277 1898-2083).
T4 construct: erythrocyte β-spectrin, human, residues 1898-2083 (β16 plus the incomplete 17th domain); synthetic gene (GenScript) in a modified pRSETA plasmid; source: E. coli C41(DE3), purified (Ni2+ agarose, thrombin cleavage, gel filtration)
T4 sequence (looked up): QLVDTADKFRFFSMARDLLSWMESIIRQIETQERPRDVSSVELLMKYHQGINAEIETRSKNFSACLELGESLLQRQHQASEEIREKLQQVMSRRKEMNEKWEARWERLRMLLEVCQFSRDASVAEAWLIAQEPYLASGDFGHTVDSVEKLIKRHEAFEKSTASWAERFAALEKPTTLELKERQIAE

The next experiment has as its target T5, β16β17 F11L (human, UniProt P11277 1898-2083, F2014L).
T5 construct: erythrocyte β-spectrin, human, residues 1898-2083 (β16β17); mutant of m2; also called F2014L; source: E. coli C41(DE3), purified (Ni2+ agarose, thrombin cleavage, gel filtration)
T5 sequence (looked up): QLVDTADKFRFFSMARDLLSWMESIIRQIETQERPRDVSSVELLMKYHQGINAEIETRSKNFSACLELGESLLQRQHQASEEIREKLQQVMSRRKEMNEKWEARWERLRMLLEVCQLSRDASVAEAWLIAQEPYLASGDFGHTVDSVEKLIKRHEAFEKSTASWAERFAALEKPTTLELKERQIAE

For a further experiment, the target named is T6, β16β17 Q25A (human, UniProt P11277 1898-2083, Q2028A).
T6 construct: erythrocyte β-spectrin, human, residues 1898-2083 (β16β17); mutant of m2; also called Q2028A; source: E. coli C41(DE3), purified (Ni2+ agarose, thrombin cleavage, gel filtration)
T6 sequence (looked up): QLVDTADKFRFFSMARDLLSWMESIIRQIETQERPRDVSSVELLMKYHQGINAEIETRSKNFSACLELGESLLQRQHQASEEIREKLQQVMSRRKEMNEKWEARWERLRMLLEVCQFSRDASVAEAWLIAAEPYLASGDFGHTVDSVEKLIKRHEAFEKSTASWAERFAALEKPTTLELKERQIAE

B1: α0α1 (erythrocyte α-spectrin residues 2–163), wild type (domain or fragment, human, UniProt P02549 2-163, looked up)
chain: EQFPKETVVESSGPKVLETAEEIQERRQEVLTRYQSFKERVAERGQKLEDSYHLQVFKRDADDLGKWIMEKVNILTDKSYEDPTNIQGKYQKHQSLEAEVQTKSRLMSELEKTREERFTMGHSAHEETKAHIEELRHLWDLLLELTLEKGDQLLRALKFQQY
notes: synthetic gene (GenScript) in a modified pRSETA plasmid; also called α1α0; source: E. coli C41(DE3), purified (Ni2+ agarose, thrombin cleavage, gel filtration)
Regarding B1, the Ka in the experiment with β16β17 K67G turned out to be 140000 M⁻¹; in the experiment with β16β17 K46G it was 230000 M⁻¹; with β16β17 R13A, 980000 M⁻¹; in experiment [1] it was 2.07e+06 M⁻¹; with β16β17 F11L, 16000 M⁻¹; in the experiment with β16β17 Q25A, 120000 M⁻¹.
